The values that follow come from article PMC12827253 (2025).

In assay [1] the target is T1, human recombinant RIPK3 (human, UniProt Q9Y572 1-518). The assay is described as follows: BLI; fit at 25 nM GADD45β. In general terms: BLI is a label-free optical method that tracks binding on a fibre tip over time.
For assay [2], the target named is T1, human recombinant RIPK3. The assay is described as follows: BLI; average.
Assay [3] deals with T1, human recombinant RIPK3. Briefly: BLI; fit at 12 nM GADD45β.
Assay [4] deals with T1, human recombinant RIPK3. The assay is described as follows: BLI; fit at 100 nM GADD45β.
Assay [5] deals with T1, human recombinant RIPK3. The assay is described as follows: BLI; fit at 3 nM GADD45β.
In assay [6] the target is T1, human recombinant RIPK3. The assay is described as follows: BLI; fit at 6 nM GADD45β.
In assay [7] the target is T1, human recombinant RIPK3. The assay is described as follows: BLI; fit at 50 nM GADD45β.

T1 sequence (Q9Y572 whole entry): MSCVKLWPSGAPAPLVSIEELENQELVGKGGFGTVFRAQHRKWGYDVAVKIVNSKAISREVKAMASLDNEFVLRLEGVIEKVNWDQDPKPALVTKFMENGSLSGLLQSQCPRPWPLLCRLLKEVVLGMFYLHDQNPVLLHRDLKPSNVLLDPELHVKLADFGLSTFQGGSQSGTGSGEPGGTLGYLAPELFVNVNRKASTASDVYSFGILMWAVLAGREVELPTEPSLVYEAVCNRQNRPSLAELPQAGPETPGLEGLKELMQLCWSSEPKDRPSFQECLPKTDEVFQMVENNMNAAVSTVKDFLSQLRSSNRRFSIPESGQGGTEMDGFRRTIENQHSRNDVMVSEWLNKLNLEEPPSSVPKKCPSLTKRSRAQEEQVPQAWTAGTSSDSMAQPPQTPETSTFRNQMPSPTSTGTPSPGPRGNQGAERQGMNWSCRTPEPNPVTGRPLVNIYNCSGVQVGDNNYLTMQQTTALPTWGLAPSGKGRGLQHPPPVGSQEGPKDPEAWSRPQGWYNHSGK

B1: recombinant human GADD45β (natural protein)
chain: MTLEELVACDNAAQKMQTVTAAVEELLVAAQRQDRLTVGVYESAKLMNVDPDSVVLCLLAIDEEEEDDIALQIHFTLIQSFCCDNDINIVRVSGMQRLAQLLGEPAETQGTTEARDLHCLLVTNPHTDAWKSHGLVEVASYCEESRGNNQWVPYISLQER
For the molecule B1, the dissociation constant (Kd) with human recombinant RIPK3 [1] is 1.96 nM; with human recombinant RIPK3 [3] it was 1.36 nM; with human recombinant RIPK3 [4] it was 3.49 nM; with human recombinant RIPK3 [5] it was 0.111 nM; with human recombinant RIPK3 [6], 0.61 nM; with human recombinant RIPK3 [7] it was 2.85 nM. Further, in the assay with human recombinant RIPK3 [2], the off-rate constant (koff) was 0.000546 s⁻¹.

The term Kd denotes the equilibrium constant for the complex coming apart. The term koff denotes a measure of how fast the partners let go of each other.
